Test results published in the Immune Epitope Database (IEDB).
One block for each sequence: values may come before it.

Tests used:
[1] = target: HLA-A*24:02; test: IEDB peptide-MHC binding, purified MHC/competitive/radioactivity; filed as Kd, often an IC50 or EC50 that approximates it; ≥ and ≤ were set here for values at or beyond the usual limits of such assays
[2] = target: HLA-A*30:02; test: as above
[3] = target: HLA-A*29:02; test: as above
[4] = target: HLA-A*23:01; test: as above
[5] = target: HLA-A*01:01; test: as above
[6] = target: HLA-A*26:01; test: as above
[7] = target: HLA-B*53:01; test: as above
[8] = target: HLA-B*44:03; test: as above
[9] = target: HLA-B*44:02; test: as above
[10] = target: HLA-B*40:01; test: as above
[11] = target: HLA-A*31:01; test: IEDB peptide-MHC binding, purified MHC/direct/fluorescence; filed as Kd, often an IC50 or EC50 that approximates it; ≥ and ≤ were set here for values at or beyond the usual limits of such assays; conditions: source organism: Shigella sonnei Ss046
[12] = target: HLA-A*03:01; test: as above; conditions: source organism: Shigella sonnei Ss046
[13] = source organism: Mammarenavirus machupoense
[14] = source organism: SARS coronavirus Tor2
[15] = source organism: Dengue virus 2 Jamaica/1409/1983
[16] = source organism: Dengue virus 1 Brazil/97-11/1997
[17] = source organism: Mammarenavirus juninense
[18] = source organism: Mammarenavirus guanaritoense
[19] = source organism: Dengue virus 4 Philippines/H241/1956
[20] = source organism: Dengue virus 3 Martinique/1243/1999
[21] = source organism: Triticum aestivum
[22] = source organism: Lymphocytic choriomeningitis virus (strain Armstrong)
[23] = source organism: Mammarenavirus lassaense
[24] = source organism: Lassa virus Josiah
[25] = source organism: Mammarenavirus brazilense
[26] = source organism: Dengue virus 1 Singapore/S275/1990
[27] = source organism: Mammarenavirus choriomeningitidis

Sequence: LSSGEPHCA
Kd [1, 13]: ≥ 77500 nM | Kd [2, 13]: 4600 nM | Kd [3, 13]: ≥ 78900 nM | Kd [4, 13]: ≥ 48000 nM | Kd [5, 13]: 4360 nM | Kd [6, 13]: ≥ 77900 nM

Sequence: LTALRLCAY
Kd [1, 14]: ≥ 35300 nM | Kd [2, 14]: 54.5 nM | Kd [3, 14]: 136 nM | Kd [4, 14]: 7110 nM | Kd [5, 14]: 7.86 nM | Kd [6, 14]: 961 nM

Sequence: LTDGEERVIL
Kd [5, 15]: ≥ 23600 nM

Sequence: LTLTAAVLML
Kd [5, 16]: 6160 nM

Sequence: LWEGSPGKF
Kd [1, 16]: 6160 nM | Kd [4, 16]: 7640 nM

Sequence: LWYAQIQPHW
Kd [1, 15]: 13.1 nM | Kd [4, 15]: 203 nM

Sequence: LYIKDIFTR
Kd [2, 17]: ≥ 76900 nM | Kd [5, 17]: ≥ 78100 nM | Kd [6, 17]: ≥ 77900 nM

Sequence: LYKLMGHFSW
Kd [1, 14]: 83.1 nM | Kd [2, 14]: 17100 nM | Kd [3, 14]: 8090 nM | Kd [4, 14]: 89.6 nM | Kd [5, 14]: 18400 nM | Kd [6, 14]: ≥ 20000 nM

Sequence: MIDKTPVHSW
Kd ([7]; source organism: Dengue virus 4 Thailand/0348/1991): 725 nM

Sequence: MSPALFHAFF
Kd [1, 18]: 122 nM | Kd [3, 18]: 513 nM | Kd [4, 18]: 148 nM

Sequence: MWLSYFVASF
Kd [1, 14]: 15.4 nM | Kd [2, 14]: 2400 nM | Kd [3, 14]: 38.5 nM | Kd [4, 14]: 0.257 nM | Kd [5, 14]: 1140 nM | Kd [6, 14]: 142 nM

Sequence: NEMGLIEKT
Kd [8, 19]: 2000 nM

Sequence: PATLFVWYF
Kd [7, 16]: 1890 nM

Sequence: PVNDLKYSW
Kd [7, 19]: 782 nM

Sequence: PYLGKREDLW
Kd [1, 19]: 1620 nM | Kd [4, 19]: 505 nM

Sequence: QEKGKSLLF
Kd [8, 15]: 1140 nM | Kd [9, 15]: 52.7 nM

Sequence: QENPYRTWAY
Kd [8, 19]: 8.86 nM | Kd [10, 19]: 1600 nM | Kd [9, 19]: 7.66 nM

Sequence: QPSKGWHDW
Kd [7, 20]: 207 nM

Kd [1, 21]: 1450 nM | Kd [2, 21]: 1460 nM | Kd [3, 21]: ≥ 22900 nM | Kd [4, 21]: 8090 nM | Kd [5, 21]: ≥ 71000 nM | Kd [6, 21]: ≥ 77900 nM
Sequence: QYPLGQGSF

Sequence: RPVLFRYTR
Kd [11]: 416 nM | Kd [12]: ≥ 20000 nM

Sequence: RYNLDPDTI
Kd [1, 18]: 2970 nM | Kd [3, 18]: ≥ 40600 nM | Kd [4, 18]: 6790 nM

Sequence: SLSLISHVV
Kd [1, 22]: ≥ 77500 nM | Kd [2, 22]: 1440 nM | Kd [3, 22]: ≥ 60400 nM | Kd [4, 22]: ≥ 77700 nM | Kd [5, 22]: ≥ 44700 nM | Kd [6, 22]: ≥ 77900 nM

Sequence: STSQKSIVAY
Kd [1, 14]: ≥ 70300 nM | Kd [2, 14]: 17.1 nM | Kd [3, 14]: 44.5 nM | Kd [4, 14]: ≥ 70000 nM | Kd [5, 14]: 534 nM | Kd [6, 14]: 790 nM

Sequence: STTEAILPEY
Kd [2, 20]: ≥ 61200 nM | Kd [5, 20]: 232 nM | Kd [6, 20]: 48 nM

Sequence: SYLAGAGLAF
Kd [1, 16]: 71.5 nM | Kd [4, 16]: 4.35 nM

Sequence: SYSMCTGKF
Kd [1, 15]: 108 nM | Kd [4, 15]: 142 nM

Sequence: TEKDSPVNI
Kd [9, 15]: 587 nM

Sequence: TWALCEALTL
Kd [1, 15]: 114 nM | Kd [4, 15]: 511 nM

Sequence: VEIALYQPI
Kd [1, 23]: ≥ 38000 nM | Kd [2, 23]: ≥ 40100 nM | Kd [3, 23]: ≥ 78900 nM | Kd [4, 23]: 1480 nM | Kd [5, 23]: ≥ 78100 nM | Kd [6, 23]: ≥ 77900 nM

Sequence: VEIWTKEGEK
Kd [10, 20]: 754 nM

Sequence: VEPWLKNNQF
Kd [8, 20]: 162 nM | Kd [10, 20]: 1620 nM | Kd [9, 20]: 93.7 nM

Sequence: VFRTSTPRVV
Kd [1, 24]: ≥ 70300 nM | Kd [2, 24]: 6350 nM | Kd [3, 24]: ≥ 71400 nM | Kd [4, 24]: ≥ 70000 nM | Kd [5, 24]: ≥ 70400 nM | Kd [6, 24]: ≥ 69700 nM

Sequence: VTDFKGKTV
Kd [5, 15]: ≥ 20300 nM

Sequence: VTDVTLLMA
Kd [1, 25]: ≥ 77500 nM | Kd [2, 25]: 423 nM | Kd [3, 25]: ≥ 23400 nM | Kd [4, 25]: 18200 nM | Kd [5, 25]: 8.7 nM | Kd [6, 25]: ≥ 77900 nM

Sequence: VYPLSIPATL
Kd [1, 26]: 111 nM | Kd [4, 26]: 15.3 nM

Sequence: WCSQTNYQY
Kd [1, 27]: ≥ 77500 nM | Kd [2, 27]: 734 nM | Kd [3, 27]: 204 nM | Kd [4, 27]: ≥ 77700 nM | Kd [5, 27]: 964 nM | Kd [6, 27]: ≥ 77900 nM

Sequence: WEPSKGWKNW
Kd [9, 19]: 150 nM
